Measured values reported in patent US20090318350A1, “PAN-HER ANTAGONISTS AND METHODS OF USE” (priority 2006, published 2009).
Numbering of substitutions follows the chain as printed. In names and notes the source's numbering stands.

Columns and labels:
HER5 cells [1] = conditions: cited from earlier work
Her-3 = Her-3 (Homo sapiens, UniProt P21860); conditions: particularly for Her-3; cited from earlier work
HER5 cells [2] = assay: Cell proliferation assay (WST-1), EGF dependent HER5 cells; type: cell-based, mouse; conditions: 48 hour proliferation, phage fusion or purified protein as labelled, read-out: Calculated cell proliferation (EC50)
Procedure: (§1) Phage-fusion particles displaying ligand variants were evaluated for their ability to stimulate cell proliferation in the cell proliferation assay described herein in both an EGF dependent cell line, HER5 and a heregulin dependent cell line, MCF-7.
The HER5 cell line, a murine fibroblast line (derived from the NR-6 line; mouse fibroblast cells that overexpress human EGFR) that has been stably transfected to express the human EGF receptor was provided by Dr. M. C. Hung (MD Anderson Cancer Center).
Stock cultures of HER5 were propagated in D-MEM/F12 medium containing 10% fetal bovine serum, 100 units/ml of penicillin and 100 ug/ml of streptomycin in a water-jacketed incubator at 37° C. in a humidified 5% CO2 atmosphere.
For HER5 proliferation assays, the cells were changed into DMEM/F12 without serum for 24 hours. Cells were then trypsinized and suspended at 1E5 cells/ml. Serial dilutions of EGF (PeproTech, Rocky Hill, N.J.), and HER ligand polypeptide variants were prepared in serum-free DMEM/F12 at 2-fold the final concentration and plated into the wells of 96-well plates. […] Cell proliferation was determined by addition of 10 ul/well of WST-1 Cell Proliferation Reagent (Roche Applied Sciences, Indianapolis, Ind.) for the last three hours of the proliferation period. […] The amount of formazan was measured at 450 nm using a microplate reader (Dynex Technologies) with MRX Revelation software.

MCF-7 cells [3] = conditions: stated as known; cited from earlier work
MCF-7 cells [4] = assay: Cell proliferation assay (WST-1), heregulin dependent MCF-7 cells; type: cell-based, human; conditions: 72 hours, phage fusion or purified protein as labelled, read-out: Calculated cell proliferation (EC50)
Procedure: as §1
MCF-7 cells (human breast cancer cell lines that express HER2 and HER3) were obtained from the American Type Culture Collection (ATCC). Stock cultures of MCF-7 were maintained in Eagle's MEM supplemented with 1% ITS-X (Invitrogen) and 10% fetal bovine serum.
For proliferation assays, MCF-7 cells were transferred to serum-free medium (SFM) for 24 hours and then trypsinized and suspended at 10^5 cells/mL in SFM. Fifty microliters of cell suspension (5000 cells) were plated per well in 96 well microtiter plates. Serial dilutions of HER ligands or mutant proteins were prepared at twice the final concentration in SFM and 50 ul was added to wells, bringing the final volume to 100 ul at the desired final concentration. Plates were incubated for 72 hours at 37 C in a humidified 5% CO2 atmosphere. Cell proliferation was determined by addition of 10 ul/well of WST-1 Cell Proliferation Reagent (Roche Applied Sciences, Indianapolis, Ind.) for the last three hours of the proliferation period.

Sequence of Her-3 (P21860 20-1342): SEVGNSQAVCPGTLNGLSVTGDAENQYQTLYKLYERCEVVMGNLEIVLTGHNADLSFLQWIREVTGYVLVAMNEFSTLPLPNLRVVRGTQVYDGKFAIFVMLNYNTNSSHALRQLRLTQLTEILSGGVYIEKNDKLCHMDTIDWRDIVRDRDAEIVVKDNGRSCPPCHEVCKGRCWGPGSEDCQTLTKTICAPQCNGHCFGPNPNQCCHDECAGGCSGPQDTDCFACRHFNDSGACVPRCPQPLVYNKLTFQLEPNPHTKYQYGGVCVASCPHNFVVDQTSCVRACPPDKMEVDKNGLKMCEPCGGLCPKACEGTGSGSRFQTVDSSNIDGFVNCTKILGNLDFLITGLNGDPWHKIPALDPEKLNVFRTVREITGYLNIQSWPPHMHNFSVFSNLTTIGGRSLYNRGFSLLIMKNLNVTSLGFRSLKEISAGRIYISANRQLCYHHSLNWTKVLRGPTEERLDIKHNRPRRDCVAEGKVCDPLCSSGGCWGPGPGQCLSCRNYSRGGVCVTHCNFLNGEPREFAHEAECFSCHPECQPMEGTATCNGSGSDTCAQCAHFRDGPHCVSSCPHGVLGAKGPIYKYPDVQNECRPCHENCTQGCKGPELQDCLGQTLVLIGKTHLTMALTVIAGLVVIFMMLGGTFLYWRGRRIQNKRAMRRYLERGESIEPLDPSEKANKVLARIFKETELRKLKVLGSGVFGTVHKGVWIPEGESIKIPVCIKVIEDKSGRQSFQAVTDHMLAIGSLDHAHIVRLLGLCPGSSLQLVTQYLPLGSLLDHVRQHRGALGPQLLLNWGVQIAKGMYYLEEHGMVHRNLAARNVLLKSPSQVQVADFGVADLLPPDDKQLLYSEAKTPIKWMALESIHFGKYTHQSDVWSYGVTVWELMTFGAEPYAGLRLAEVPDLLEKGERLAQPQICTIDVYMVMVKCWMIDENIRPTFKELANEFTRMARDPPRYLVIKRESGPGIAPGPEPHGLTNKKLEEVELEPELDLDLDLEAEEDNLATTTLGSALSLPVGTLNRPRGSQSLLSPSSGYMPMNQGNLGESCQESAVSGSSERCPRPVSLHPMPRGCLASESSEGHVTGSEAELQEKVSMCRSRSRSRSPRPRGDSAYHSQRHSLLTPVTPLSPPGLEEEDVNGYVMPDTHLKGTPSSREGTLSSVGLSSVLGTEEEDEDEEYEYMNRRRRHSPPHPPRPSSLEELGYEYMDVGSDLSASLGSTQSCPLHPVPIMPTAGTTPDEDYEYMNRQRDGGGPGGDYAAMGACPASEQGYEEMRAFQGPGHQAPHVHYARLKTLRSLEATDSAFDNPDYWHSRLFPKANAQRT

B1: T1ER41D: T1E with arginine of position 41 replaced by aspartate (protein)
chain: VVSHFNDCPLSHDGYCLHDGVCMYIEALDKYACNCVVGYIGEDCQYRDLKWWELRAETVESCLAKPHTENSFTNVWKDDKTLDRYANYEGCLWNATGVVVCTGDETQCYGTWVPIGLAIPENEGGGSEGGGSEGGGSEGGGTKPPEYGDTPIPGYTYINPLDGTYPPGTEQNPANPNPSLEESQPLNTFMFQNNRFRNRQGALTVYTGTVTQGTDPVKTYYQYTPVSSKAMYDAYWNGKFRDCAFHSGFNEDPFVCEYQGQSSDLPQPPVNAGGGSGGGSGGGSEGGGSEGGGSEGGGSEGGGSGGGSGSGDFDYEKMANANKGAMTENADENALQSDAKGKLDSVATDYGAAIDGFIGDVSGLANGNGATGDFAGSNSQMAQVGDGDNSPLMNNFRQYLPSLPQSVECRPFVFSAGKPYEFSIDCDKINLFRGVFAFLLYVATFMYVFSTFANILRNKES
HER5 cells [1]; isolated ligand variants, previously demonstrated
  stimulation of cell proliferation in EGFR-dependent HER5 cells: greatly attenuated activity

B2: EGFwrs: EGF variant, residues 2 and 3 replaced with W and R, N-terminus NWRSE (protein)
chain: HHHHHHIEGRNWRSECPLSHDGYCLHDGVCMYIEALDKYACNCWGYIGERCQYRDLKWWELR
Her-3
  binding affinity: high binding affinity

B3: EGF (purified protein): human epidermal growth factor, 53 amino acid cytokine (PeproTech) (protein)
chain: B2 chain with W12S, R13D
HER5 cells [2]
  EC50: 1.15 nM
HER5 cells [1]; stated as known
  stimulation of HER5 cells: can be stimulated
MCF-7 cells [3]
  stimulation of MCF-7 cells: not

B4: Heregulin (purified protein): heregulin, native HER3/HER4 ligand, purified protein (protein)
chain: SHLVKCAEKEKTFCVNGGECFMVKDLSNPSRYLCKCPNEFTGDRCQNYVMASFYKHLGIEFMEAEELY
MCF-7 cells [4]
  EC50: 6.15 nM
MCF-7 cells [3]
  stimulation of MCF-7 cells: can be stimulated
